Reference: patent publication US20220251236A1 (Boehringer Ingelheim, published 2022)
Changes are numbered by the printed parent chain.

T1: Human DLL3-His (human, UniProt Q9NYJ7 27-492)
T1 construct: also called huDLL3-His; hu DLL3
T1 sequence: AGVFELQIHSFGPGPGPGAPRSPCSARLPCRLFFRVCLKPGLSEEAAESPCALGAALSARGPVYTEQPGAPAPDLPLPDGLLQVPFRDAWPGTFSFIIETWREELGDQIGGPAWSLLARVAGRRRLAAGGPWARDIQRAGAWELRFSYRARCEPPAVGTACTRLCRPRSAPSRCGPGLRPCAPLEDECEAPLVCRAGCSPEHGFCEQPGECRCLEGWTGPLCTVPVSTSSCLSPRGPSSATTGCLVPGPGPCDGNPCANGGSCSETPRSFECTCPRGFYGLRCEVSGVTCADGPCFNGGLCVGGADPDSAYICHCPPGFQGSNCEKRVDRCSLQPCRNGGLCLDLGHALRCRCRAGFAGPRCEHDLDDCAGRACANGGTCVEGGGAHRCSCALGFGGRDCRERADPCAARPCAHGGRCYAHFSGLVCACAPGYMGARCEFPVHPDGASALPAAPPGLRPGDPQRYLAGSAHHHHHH

T2: FLAG-tagged human DLL1 full length (human, UniProt O00548 1-723)
T2 construct: also called human DLL1 on HEK293 cells
T2 sequence: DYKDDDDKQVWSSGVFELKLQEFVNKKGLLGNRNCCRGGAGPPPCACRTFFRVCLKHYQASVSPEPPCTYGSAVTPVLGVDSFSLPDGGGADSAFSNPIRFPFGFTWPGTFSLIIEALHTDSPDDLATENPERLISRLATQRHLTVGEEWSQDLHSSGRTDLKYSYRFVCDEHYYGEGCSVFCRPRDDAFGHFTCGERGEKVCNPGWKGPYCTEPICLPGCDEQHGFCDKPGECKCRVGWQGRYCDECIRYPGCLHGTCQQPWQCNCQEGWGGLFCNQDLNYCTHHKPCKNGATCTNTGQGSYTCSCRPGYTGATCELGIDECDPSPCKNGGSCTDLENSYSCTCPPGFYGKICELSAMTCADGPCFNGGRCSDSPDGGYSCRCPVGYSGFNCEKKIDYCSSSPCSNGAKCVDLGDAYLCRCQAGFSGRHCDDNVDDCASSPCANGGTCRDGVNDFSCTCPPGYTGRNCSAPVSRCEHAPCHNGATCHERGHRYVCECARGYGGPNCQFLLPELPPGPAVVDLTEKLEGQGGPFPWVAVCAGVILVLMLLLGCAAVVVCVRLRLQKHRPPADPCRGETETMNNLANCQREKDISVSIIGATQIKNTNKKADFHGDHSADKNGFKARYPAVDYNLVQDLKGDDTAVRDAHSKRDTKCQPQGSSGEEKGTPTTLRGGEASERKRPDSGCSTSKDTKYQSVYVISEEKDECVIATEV

T3: human DLL3 (endogenous, on SCLC cell lines NCI-H82 and SHP77 and in SCLC tissue) (human, UniProt Q9NYJ7 27-618)
T3 construct: whole, on cells; also called SCLC cell lines expressing DLL3
T3 sequence (looked up): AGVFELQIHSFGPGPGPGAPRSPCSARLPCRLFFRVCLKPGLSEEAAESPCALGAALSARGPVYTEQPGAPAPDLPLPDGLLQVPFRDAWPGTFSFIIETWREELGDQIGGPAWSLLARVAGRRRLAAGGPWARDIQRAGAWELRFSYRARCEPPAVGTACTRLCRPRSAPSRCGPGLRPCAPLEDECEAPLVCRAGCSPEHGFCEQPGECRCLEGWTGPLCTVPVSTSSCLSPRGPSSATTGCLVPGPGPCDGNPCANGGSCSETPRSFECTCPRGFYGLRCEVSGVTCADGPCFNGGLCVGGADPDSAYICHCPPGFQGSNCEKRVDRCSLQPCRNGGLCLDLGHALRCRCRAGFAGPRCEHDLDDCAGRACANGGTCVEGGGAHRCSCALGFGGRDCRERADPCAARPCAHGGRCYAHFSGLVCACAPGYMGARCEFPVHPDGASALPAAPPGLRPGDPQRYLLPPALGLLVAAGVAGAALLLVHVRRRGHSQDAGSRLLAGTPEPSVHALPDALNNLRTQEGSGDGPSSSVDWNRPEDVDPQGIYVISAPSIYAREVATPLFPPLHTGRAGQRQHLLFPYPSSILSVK

B1: DLL3#3/CD3#2 (bispecific antibody, human IgG1, kappa, lambda, L234A L235A)
chain 1: DIQMTQSPSAMSASVGDRVTITCRASQGISNYLVWFQQKPGKAPKRLIYAVSSLYSGVPSRFSGSGSGTEFTLTISSLQPEDFATYYCLQHDSYPYTFGQGTKLEIKRTVAAPSVFIFPPSDEQLKSGTASVVCLLNNFYPREAKVQWKVDNALQSGNSQESVTEQDSKDSTYSLSSTLTLSKADYEKHKVYACEVTHQGLSSPVTKSFNRGECGGGGSEGKSSGSGSESKSTEGKSSGSGSESKSTGGGGSQVQLVQSGAEVKKPGASVKVSCKASGYTFTSYYVHWVRQAPGQGLEWMVIINPGGGTTSYAQKFLGRVTMTRDTSTNTVYMELKSLRSEDTAVYYCARGEAVTGNYFYYGMDVWGQGTTVTVSSASTKGPSVFPLAPSSKSTSGGTAALGCLVKDYFPEPVTVSWNSGALTSGVHTFPAVLQSSGLYSLSSVVTVPSSSLGTQTYICNVNHKPSNTKVDKRVEPKSCDKTHTCPPCPAPEAAGGPSVFLFPPKPKDTLMISRTPEVTCVVVDVSHEDPEVKFNWYVDGVEVHNAKTKPREEQYNSTYRVVSVLTVLHQDWLNGKEYKCKVSNKALPAPIEKTISKAKGQPREPQVYTLPPSREEMTKNQVSLWCLVKGFYPSDIAVEWESNGQPENNYKTTPPVLDSDGSFFLYSKLTVDKSRWQQGNVFSCSVMHEALHNHYTQKSLSLSPG
chain 2: EAVVTQEPSLTVSPGGTVTLTCRSSTGAVTTSNYANWVQEKPGQLPRGLIGGTNKRAPWVPARFSGSLLGGKAALTLSGAQPEDEAEYFCALWYSNLWVFGGGTKLTVLGQPKAAPSVTLFPPSSEELQANKATLVCLISDFYPGAVKVAWKADGSPVNTGVETTTPSKQSNNKYAASSYLSLTPEQWKSHRSYSCQVTHEGSTVEKTVAPAECSGGGGSEGKSSGSGSESKSTEGKSSGSGSESKSTGGGGSEVQLVESGGGLVQPGGSLKLSCAASGFTFNTYAMNWVRQAPGKGLEWVARIRSKYINYATYYADSVKDRFTISRDDSKNTAYLQMNNLKTEDTAVYYCVRHGNFGNSYVSWFAYWGQGTLVTVSAASTKGPSVFPLAPSSKSTSGGTAALGCLVKDYFPEPVTVSWNSGALTSGVHTFPAVLQSSGLYSLSSVVTVPSSSLGTQTYICNVNHKPSNTKVDKRVEPKSCDKTHTCPPCPAPEAAGGPSVFLFPPKPKDTLMISRTPEVTCVVVDVSHEDPEVKFNWYVDGVEVHNAKTKPREEQYNSTYRVVSVLTVLHQDWLNGKEYKCKVSNKALPAPIEKTISKAKGQPREPQVYTLPPSREEMTKNQVSLSCAVKGFYPSDIAVEWESNGQPENNYKTTPPVLDSDGSFFLVSKLTVDKSRWQQGNVFSCSVMHEALHNRFTQKSLSLSPG
notes: Heterodimer of one DLL3 chain and one CD3 chain (scFab-Fc, knob-in-hole)
B2: DLL3#4/CD3#1 (bispecific antibody, human IgG1, kappa, lambda, L234A L235A)
chain 1: not shown
chain 2: B1 chain 2 with I309N
notes: as for B1
B3: DLL3#5/CD3#1 (bispecific antibody, human IgG1, kappa, lambda, L234A L235A)
chain 1: not shown
chain 2: B1 chain 2 with I309N
notes: as for B1
B4: DLL3#6/CD3#1 (bispecific antibody, human IgG1, kappa, lambda, L234A L235A)
chain 1: DIQLTQSPSFLSTSVGDRVTITCRASQDISNYFAWYQQKPGKAPKLLIYAASTLQSGVPSRFSGGGSGTEFTLTISSLQPEDFATYYCQQLNSYPYTFGQGTKLEIKRTVAAPSVFIFPPSDEQLKSGTASVVCLLNNFYPREAKVQWKVDNALQSGNSQESVTEQDSKDSTYSLSSTLTLSKADYEKHKVYACEVTHQGLSSPVTKSFNRGECGGGGSEGKSSGSGSESKSTEGKSSGSGSESKSTGGGGSQVQLQESGPGLVKPSETLSLTCTVSGGSISSYFWSWIRQPAGKGLEWIGRIYTSGSTNYNPSLNSRLTMSVDTSKNQFSLKLSSVTAADTAVYYCARRGDWGGFDIWGQGTVVTVSSASTKGPSVFPLAPSSKSTSGGTAALGCLVKDYFPEPVTVSWNSGALTSGVHTFPAVLQSSGLYSLSSVVTVPSSSLGTQTYICNVNHKPSNTKVDKRVEPKSCDKTHTCPPCPAPEAAGGPSVFLFPPKPKDTLMISRTPEVTCVVVDVSHEDPEVKFNWYVDGVEVHNAKTKPREEQYNSTYRVVSVLTVLHQDWLNGKEYKCKVSNKALPAPIEKTISKAKGQPREPQVYTLPPSREEMTKNQVSLWCLVKGFYPSDIAVEWESNGQPENNYKTTPPVLDSDGSFFLYSKLTVDKSRWQQGNVFSCSVMHEALHNHYTQKSLSLSPG
chain 2: B1 chain 2 with I309N
notes: as for B1

Tests used:
[1] = biological target: T4, trypsin inhibitor from glycine max soybean (Glycine max (soybean)); assay: SPR (Biacore T200), trypsin inhibitor on CM5 chip, sample at 1 µM
T4 construct: also called Tryp
Source text: To prepare the surface for the non-specific binding experiment, chicken egg white lysozyme and trypsin inhibitor from glycine max soybean were coupled manually to a series S CM5 chip with the surface density of 3000-5000 RU using the amine coupling kit according to the manufacture instructions.

Human DLL3-His = biological target: T1, Human DLL3-His; assay: SPR (ProteOn XPR36), bispecific captured on protein A/G, hu DLL3 as analyte, Example 4B
Outline: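 Bispecific constructs captured on protein A/G for 200 s at 30 μl/min, baseline stabilized with PBS-T-EDTA. Human DLL3 analyte injected 300 s at 30 μl/min; dissociation followed for 1800 s.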

[2] = biological target: T2, FLAG-tagged human DLL1 full length; assay: flow cytometry on HEK293 cells expressing human DLL1 (HEK293-huDLL1), PE anti-human secondary, control: secondary antibody only
Experimental: Bound molecules were detected with PE-conjugated anti-human secondary antibody (Sigma-Aldrich, #P8047). As negative control, cells were incubated with secondary antibody only. The samples were measured by flow-cytometry.

[3] = biological target: T3, human DLL3 (endogenous, on SCLC cell …); assay: flow cytometry titration on SHP77 cells, PE anti-human secondary, x-fold over background
Source text: Cells (T cells or human SCLC cells) were stained with increasing concentrations of two-step purified DLL3/CD3 binding proteins with increasing concentrations in FACS buffer (PBS/0.5% BSA/0.05% sodium azide). Bound molecules were detected with PE-conjugated anti-human secondary antibody (Sigma-Aldrich, #P8047).

T4 sequence (P01070 25-205): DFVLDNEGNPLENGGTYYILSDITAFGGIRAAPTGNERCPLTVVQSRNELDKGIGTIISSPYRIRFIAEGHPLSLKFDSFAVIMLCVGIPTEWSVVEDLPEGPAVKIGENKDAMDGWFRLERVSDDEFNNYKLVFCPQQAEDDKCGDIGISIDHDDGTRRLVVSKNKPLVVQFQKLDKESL

| Binder | Non-specific binding (RU) [1] [RU] | Kd (Human DLL3-His) [pM] | binding result [2] | EC50 (read off the curve) [3] [pM] |
| --- | --- | --- | --- | --- |
| B1 | 36 | 120 | no binding (tested: 1.6 nM) |  |
| B2 | 37 | < 20 | no binding (tested: 1.6 nM) | ~300 |
| B3 | 0 | < 20 | no binding (tested: 1.6 nM) | ~1000 |
| B4 | 0 | 152 | no binding (tested: 1.6 nM) | ~2000 |
